The values that follow come from the supplement of paper PMC9112550, “Optimization of the antimicrobial peptide Bac7 by deep mutational scanning” (BMC Biology, 2022).

The test system of the data set is Escherichia coli TOP10. Description: shrunken log2 fold change of peptide-encoding DNA abundance (4.5 h post-induction vs induction); higher = less antimicrobial activity (less host growth inhibition). The settings on record: time post-induction: 4.5 h; library: site-saturation at positions 5, 18, 19, 20.
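Also: peptides expressed intracellularly from a pBAD plasmid library in pooled LB shake-flask culture, induced with 0.3% L-arabinose, DNA abundance read by NGS, three biological replicates, DESeq2 with apeglm shrinkage.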

In the case of RRIRERPPRLPRPRPRPMPIPRP, the “shrunken log2 fold change” value was -0.18. As for RRIRGRPPRLPRPRPRPTQEPRP, the “shrunken log2 fold change” value was determined as 1.38. As for RRIRTRPPRLPRPRPRPTTWPRP, the figure is -0.0444. Under RRIRWRPPRLPRPRPRPTWEPRP stands 0.314; under RRIRQRPPRLPRPRPRPCVAPRP, 0.317. For the sequence RRIRFRPPRLPRPRPRPRECPRP, the “shrunken log2 fold change” value worked out at 0.277. Under RRIRLRPPRLPRPRPRPEIQPRP stands -0.0217; under RRIRPRPPRLPRPRPRPVIYPRP, -0.063.

Turning to RRIRRRPPRLPRPRPRPWQYPRP, the “shrunken log2 fold change” value worked out at 0.0419. As for RRIRMRPPRLPRPRPRPNHQPRP, the figure is -0.105; as for RRIRLRPPRLPRPRPRPICNPRP, -0.243; as for RRIRPRPPRLPRPRPRPWQQPRP, -0.0467. Take RRIRRRPPRLPRPRPRPVVVPRP: the “shrunken log2 fold change” value came to 0.186. Under RRIRCRPPRLPRPRPRPINGPRP stands -0.282; under RRIRYRPPRLPRPRPRPEAVPRP, 0.0685; under RRIRKRPPRLPRPRPRPKYNPRP, -0.267.

As to RRIRRRPPRLPRPRPRPQKDPRP, the “shrunken log2 fold change” value is -0.151. As to RRIRIRPPRLPRPRPRPEFDPRP, the “shrunken log2 fold change” value turned out to be 0.0326. Under RRIRDRPPRLPRPRPRPLFIPRP stands -0.184; under RRIRSRPPRLPRPRPRPEHTPRP, 0.262. As for RRIRCRPPRLPRPRPRPIQYPRP, the figure is -0.308; as for RRIRNRPPRLPRPRPRPVQTPRP, 0.12; as for RRIRPRPPRLPRPRPRPGKKPRP, 0.00372.

Turning to RRIRVRPPRLPRPRPRPIGAPRP, the “shrunken log2 fold change” value is 0.255.

In the case of RRIRSRPPRLPRPRPRPCWIPRP, the “shrunken log2 fold change” value is -0.0651. As for RRIRIRPPRLPRPRPRPHCWPRP, the figure is -0.27; as for RRIRMRPPRLPRPRPRPPCRPRP, 0.584; as for RRIRFRPPRLPRPRPRPWCVPRP, -0.384. As for RRIRYRPPRLPRPRPRPVTKPRP, the figure is -0.543; as for RRIRVRPPRLPRPRPRPTLHPRP, 0.195; as for RRIRVRPPRLPRPRPRPCLLPRP, -0.072.

As for RRIRPRPPRLPRPRPRPFSHPRP, the “shrunken log2 fold change” value was -0.402.

Turning to RRIRWRPPRLPRPRPRPHWKPRP, the “shrunken log2 fold change” value is -0.018. As for RRIRRRPPRLPRPRPRPEFCPRP, the figure is 0.579; as for RRIRPRPPRLPRPRPRPYPDPRP, -0.145; as for RRIRWRPPRLPRPRPRPMEIPRP, -0.0287.

As to RRIRARPPRLPRPRPRPQVFPRP, the “shrunken log2 fold change” value stood at 0.278. Under RRIRMRPPRLPRPRPRPTGFPRP stands 1.12. Under RRIRQRPPRLPRPRPRPWAKPRP stands -0.000896; under RRIRSRPPRLPRPRPRPHRCPRP, -0.209; under RRIRNRPPRLPRPRPRPWCDPRP, -0.365.

Consider RRIRYRPPRLPRPRPRPNAVPRP, for which the “shrunken log2 fold change” value was -0.00911.

Turning to RRIRARPPRLPRPRPRPVNEPRP, the “shrunken log2 fold change” value amounted to 0.356.

Consider RRIRHRPPRLPRPRPRPCHQPRP, for which the “shrunken log2 fold change” value was -0.601. Under RRIRARPPRLPRPRPRPFGWPRP stands 0.24; under RRIRERPPRLPRPRPRPGRPPRP, 0.164. For RRIRVRPPRLPRPRPRPFSGPRP, the “shrunken log2 fold change” value was -0.337. Turning to RRIRPRPPRLPRPRPRPGPMPRP, the “shrunken log2 fold change” value stood at 0.293. In the case of RRIRHRPPRLPRPRPRPWFHPRP, the “shrunken log2 fold change” value is -0.525. Turning to RRIRNRPPRLPRPRPRPNNQPRP, the “shrunken log2 fold change” value was -0.703.

As for RRIRYRPPRLPRPRPRPGVIPRP, the “shrunken log2 fold change” value was -0.297. As for RRIRPRPPRLPRPRPRPKWDPRP, the figure is 0.319; as for RRIRLRPPRLPRPRPRPHPDPRP, -0.111. As for RRIRMRPPRLPRPRPRPNLAPRP, the figure is 0.337; as for RRIRHRPPRLPRPRPRPFDYPRP, -0.0282.

With RRIRYRPPRLPRPRPRPGYEPRP, the “shrunken log2 fold change” value was determined as 0.026.

For RRIRPRPPRLPRPRPRPCLPPRP, the “shrunken log2 fold change” value was determined as 0.0296. Consider RRIRCRPPRLPRPRPRPFAIPRP, for which the “shrunken log2 fold change” value is -0.682. Under RRIRCRPPRLPRPRPRPLVHPRP stands -0.075; under RRIRYRPPRLPRPRPRPIDPPRP, -0.00088; under RRIRHRPPRLPRPRPRPNTIPRP, -0.903. Turning to RRIRYRPPRLPRPRPRPHGWPRP, the “shrunken log2 fold change” value was -0.0273.

Turning to RRIRMRPPRLPRPRPRPPHQPRP, the “shrunken log2 fold change” value was 0.634. As for RRIRNRPPRLPRPRPRPFRAPRP, the figure is -0.00309; as for RRIRKRPPRLPRPRPRPYTMPRP, -0.53; as for RRIRQRPPRLPRPRPRPMMAPRP, 0.216. Under RRIRRRPPRLPRPRPRPSGTPRP stands 0.494. As for RRIRMRPPRLPRPRPRPMVEPRP, the figure is 0.0167; as for RRIRPRPPRLPRPRPRPHSMPRP, -0.408. Turning to RRIRFRPPRLPRPRPRPKIGPRP, the “shrunken log2 fold change” value is -0.0769.

Consider RRIRDRPPRLPRPRPRPHEVPRP, for which the “shrunken log2 fold change” value was found to be 0.0253.

On to RRIRCRPPRLPRPRPRPCGKPRP, for which the “shrunken log2 fold change” value was -0.0972. Consider RRIRQRPPRLPRPRPRPPKVPRP, for which the “shrunken log2 fold change” value came to 2.65e-05. Consider RRIRGRPPRLPRPRPRPEPIPRP, for which the “shrunken log2 fold change” value stood at 0.296. Under RRIRSRPPRLPRPRPRPFIVPRP stands -0.477; under RRIRCRPPRLPRPRPRPGYGPRP, -0.273; under RRIRTRPPRLPRPRPRPTGFPRP, -0.0124. As for RRIRKRPPRLPRPRPRPRVCPRP, the figure is 0.282. On to RRIRVRPPRLPRPRPRPCFWPRP, for which the “shrunken log2 fold change” value is -0.0218.

Turning to RRIRTRPPRLPRPRPRPYLCPRP, the “shrunken log2 fold change” value is -0.189. In the case of RRIRTRPPRLPRPRPRPGEQPRP, the “shrunken log2 fold change” value came to 0.15. As for RRIRQRPPRLPRPRPRPPENPRP, the figure is 0.0912; as for RRIRCRPPRLPRPRPRPPMFPRP, -0.121; as for RRIRFRPPRLPRPRPRPRYSPRP, -0.736. Regarding RRIRQRPPRLPRPRPRPMPLPRP, the “shrunken log2 fold change” value is -0.00134. Under RRIRYRPPRLPRPRPRPKPNPRP stands -0.158. Under RRIRVRPPRLPRPRPRPELSPRP stands 0.119; under RRIRGRPPRLPRPRPRPIKQPRP, -0.0183. As for RRIRIRPPRLPRPRPRPLQKPRP, the figure is -0.0683.

Turning to RRIRKRPPRLPRPRPRPCCNPRP, the “shrunken log2 fold change” value came out at 0.0185. Under RRIRWRPPRLPRPRPRPWTVPRP stands -0.0123; under RRIRTRPPRLPRPRPRPMATPRP, 0.0309; under RRIRFRPPRLPRPRPRPTLLPRP, -0.0998. As for RRIRPRPPRLPRPRPRPCPWPRP, the figure is 0.889. Under RRIRYRPPRLPRPRPRPGQGPRP stands -0.0311. Turning to RRIRARPPRLPRPRPRPLDVPRP, the “shrunken log2 fold change” value was -0.07. As for RRIRERPPRLPRPRPRPWVLPRP, the figure is -0.0134; as for RRIRLRPPRLPRPRPRPAKRPRP, 0.0374; as for RRIRERPPRLPRPRPRPTWGPRP, -0.0539. As for RRIRHRPPRLPRPRPRPDWHPRP, the figure is 2.17; as for RRIRSRPPRLPRPRPRPIFQPRP, -0.0307; as for RRIRTRPPRLPRPRPRPAQVPRP, -0.112. Under RRIRPRPPRLPRPRPRPTMCPRP stands -0.0327; under RRIRCRPPRLPRPRPRPSTMPRP, -0.509. For RRIRQRPPRLPRPRPRPEHLPRP, the “shrunken log2 fold change” value is -0.00142. Regarding RRIRRRPPRLPRPRPRPNHVPRP, the “shrunken log2 fold change” value is -0.443. Consider RRIRIRPPRLPRPRPRPVIRPRP, for which the “shrunken log2 fold change” value turned out to be 0.00816. As for RRIRKRPPRLPRPRPRPPYRPRP, the figure is -0.17; as for RRIRKRPPRLPRPRPRPWNLPRP, -0.109. In the case of RRIRYRPPRLPRPRPRPLPPPRP, the “shrunken log2 fold change” value turned out to be 0.0954.

Regarding RRIRIRPPRLPRPRPRPVLDPRP, the “shrunken log2 fold change” value is 0.0135. As for RRIRRRPPRLPRPRPRPHHCPRP, the figure is -0.0737; as for RRIRNRPPRLPRPRPRPDQWPRP, 0.0039.

Turning to RRIRLRPPRLPRPRPRPMFAPRP, the “shrunken log2 fold change” value worked out at 0.082. Under RRIRQRPPRLPRPRPRPFENPRP stands -0.00804; under RRIRKRPPRLPRPRPRPTIIPRP, -0.0974. Under RRIRPRPPRLPRPRPRPECWPRP stands 0.903; under RRIRFRPPRLPRPRPRPAGIPRP, -0.161; under RRIRFRPPRLPRPRPRPNCDPRP, -0.144. Under RRIRIRPPRLPRPRPRPEALPRP stands 0.00934. With RRIRARPPRLPRPRPRPFHVPRP, the “shrunken log2 fold change” value was determined as 0.00498. As for RRIRMRPPRLPRPRPRPKPQPRP, the figure is 1.41. Under RRIRQRPPRLPRPRPRPFYKPRP stands -0.118.

On to RRIRPRPPRLPRPRPRPCMNPRP, for which the “shrunken log2 fold change” value was -0.184. Under RRIRNRPPRLPRPRPRPQAPPRP stands 0.31.
